Consider 2 molecules from article PMC11957415, “Size-exclusion chromatography–small-angle neutron scattering system optimized for an instrument with medium neutron flux” (Journal of Applied Crystallography, 2025).

Assay [1] addresses T1, hydrogenated KaiC, phosphorylation mimic S431D (Synechococcus elongatus PCC 7942, UniProt Q79PF4 1-519, S431D).
T1 construct: Clock protein KaiC from Synechococcus elongatus PCC 7942, phosphorylation site S431 substituted with aspartate; KaiB and KaiC were mixed at a molar ratio of 12:6, and M from I(0) of hC alone is 334 ± 11 kDa; The buffer contained 3 mM ATP and 5 mM MgCl2; also called hC; h-KaiC; source: expressed and purified as previously described
T1 sequence (looked up): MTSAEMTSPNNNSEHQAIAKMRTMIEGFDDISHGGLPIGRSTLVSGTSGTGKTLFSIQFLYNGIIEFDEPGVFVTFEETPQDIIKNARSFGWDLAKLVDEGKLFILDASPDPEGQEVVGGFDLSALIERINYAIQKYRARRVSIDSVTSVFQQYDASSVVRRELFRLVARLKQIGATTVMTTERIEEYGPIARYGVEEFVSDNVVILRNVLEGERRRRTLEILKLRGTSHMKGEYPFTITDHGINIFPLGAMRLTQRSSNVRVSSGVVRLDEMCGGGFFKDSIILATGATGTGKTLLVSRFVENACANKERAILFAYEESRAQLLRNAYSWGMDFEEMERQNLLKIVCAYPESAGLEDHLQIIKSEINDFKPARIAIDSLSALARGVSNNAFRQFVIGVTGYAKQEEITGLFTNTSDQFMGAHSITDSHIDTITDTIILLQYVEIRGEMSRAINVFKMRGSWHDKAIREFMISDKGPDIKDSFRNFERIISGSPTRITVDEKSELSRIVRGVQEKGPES
In words: SEC; KaiB and KaiC mixed at a molar ratio of 12:6 and incubated at 303 K for 48 h; Superdex 200 Increase 10/300 GL, 0.5 mL/min; 98% D2O buffer with 50 mM sodium phosphate pH 7.8, 150 mM NaCl, 5 mM MgCl2, 0.5 mM EDTA, 1 mM DTT, 3 mM ATP, 50 mM glutamic acid, 50 mM arginine. The settings on record: both partners purified. (SEC sorts molecules by how far they enter the pores of the column.)

In assay [2] the target is T1, hydrogenated KaiC, phosphorylation …. Kind of assay: SEC-SANS; BC complex fraction from SEC stored in the SANS cell (stopping mode), 298 K, 98% D2O clock protein buffer; compared with hC alone. The settings on record: both partners purified.

B1: 71% deuterated KaiB (natural protein, Synechococcus elongatus PCC 7942, UniProt Q79PF5 1-102, looked up)
chain: MSPRKTYILKLYVAGNTPNSVRALKTLKNILEVEFQGVYALKVIDVLKNPQLAEEDKILATPTLAKVLPLPVRRIIGDLSDREKVLIGLDLLYGELQDSDDF
modifications: partially deuterated; degree of deuteration 71% (MALDI-TOF mass spectrometry)
notes: Clock protein KaiB from Synechococcus elongatus PCC 7942; also called 71dB; 71d-KaiB; source: bacterial cells grown in M9 minimal H2O/D2O mixture media with hydrogenated and deuterated glucose, purified
As for B1, the binding result in assay [1] is reported as “binds”.

B2: hydrogenated KaiB (natural protein, Synechococcus elongatus PCC 7942, UniProt Q79PF5 1-102, looked up)
chain: MSPRKTYILKLYVAGNTPNSVRALKTLKNILEVEFQGVYALKVIDVLKNPQLAEEDKILATPTLAKVLPLPVRRIIGDLSDREKVLIGLDLLYGELQDSDDF
notes: Clock protein KaiB from Synechococcus elongatus PCC 7942; also called hB; h-KaiB; source: expressed and purified as previously described
Regarding B2, the binding result in assay [2] is “binds”.
